From publication PMC6755811 come the findings set out here.

Assay [1] concerns the target HER2-binding monomeric IgA2m(2) with heterogeneous complex N-glycans (human). The experiment in a line: ITC; 10 μM IgA in the cell titrated with 160 μM FcαRI from the syringe; PBS pH 7.4, 25 °C, 19 injections. In general terms: Isothermal titration calorimetry measures the heat released or taken up as one component is titrated into another.
Assay [2] has as its target HER2-binding monomeric IgA2m(2) with sialylated (NaNa) N-glycans (human). Description: SPR; Biacore T200; IgA glycoforms captured on a Protein L chip, FcαRI glycoforms injected in single-cycle kinetics at five concentrations (31.5 to 500 nM); 1x PBS, 0.05% Tween, 0.1% BSA; 1:1 binding model; average of four independent experiments. A general note: Surface plasmon resonance follows binding to a sensor surface in real time, without labels.

In assay [3] the target is HER2-binding monomeric IgA1 with terminally sialylated (NaNa) N-glycans (human). The description is as above.
Assay [4] addresses HER2-binding monomeric IgA2m(2) with Man3GlcNAc2 (MM) N-glycans (human). Described as above.
For assay [5], the target named is HER2-binding monomeric IgA1 with Man3GlcNAc2 (MM) N-glycans (human). The description is as above.
Assay [6] has as its target HER2-binding monomeric IgA2m(2) with complex N-glycans (human). Description: ITC; 10 μM IgA in the sample cell titrated with 160 μM FcαRI; 25 °C; PBS, pH 7.4.
Assay [7] has as its target HER2-binding monomeric IgA1 with heterogeneous complex N-glycans, produced in HEK293F cells (human). Described as above.
Assay [8] deals with HER2-binding monomeric IgA1 with mostly biantennary GlcNAc2Man3GlcNAc2 (GnGn) complex N-glycans (human). The experiment in a line: SEC-MALS; SE-HPLC-MALS, Superdex 200 10/300 GL; IgA mixed with the receptor in a molar ratio of 1:4 starting from 25 μg of IgA.
Assay [9] deals with HEK293F-produced IgA1-Fc deletion protein lacking the Fab domain (human). The description is as above.
Chain of HEK293F-produced IgA1-Fc deletion protein lacking the Fab domain (human) (P01876 1-364, stated change not applied): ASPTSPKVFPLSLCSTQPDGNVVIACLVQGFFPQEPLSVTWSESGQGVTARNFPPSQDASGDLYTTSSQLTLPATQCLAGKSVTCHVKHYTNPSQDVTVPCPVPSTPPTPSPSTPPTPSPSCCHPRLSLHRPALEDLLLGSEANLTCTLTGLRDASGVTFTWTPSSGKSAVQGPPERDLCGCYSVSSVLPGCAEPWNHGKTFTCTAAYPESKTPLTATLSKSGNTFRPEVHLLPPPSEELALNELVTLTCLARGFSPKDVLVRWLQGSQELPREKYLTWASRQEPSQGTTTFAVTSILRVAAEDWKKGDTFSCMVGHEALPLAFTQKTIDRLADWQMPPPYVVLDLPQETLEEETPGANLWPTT

For orientation: Kd means the concentration at which binding is half-saturated. Low values mean a tighter complex, high ones a looser complex. As a reminder, the stoichiometry N is a count of units in the complex or per binding partner. “extracellular domain of human FcαRI with oligomannosidic N-glycans (from UniProt P24071 22-227) (receptor)”: in assay [1], the Kd stood at 90.7 nM and the stoichiometry N amounted to 1.36.

Broadly, the koff is the rate constant with which the complex falls apart. In general, kon refers to the second-order rate constant of association. Low values mean slower complex formation, high ones faster complex formation. Consider “extracellular domain of human FcαRI (CD89) with complex sialylated N-glycans (from UniProt P24071 22-227) (receptor)”, for which the Kd in assay [2] was determined as 206 nM; in [3], 149 nM; in assay [4], 225 nM; in assay [5] it was 187 nM; in [1], 161 nM. Besides, the koff was 0.06 s⁻¹ in assay [2], 0.07 s⁻¹ in [3], 0.06 s⁻¹ in [4] and 0.07 s⁻¹ in assay [5]. The kon is 300000 M⁻¹ s⁻¹ in [2], 520000 M⁻¹ s⁻¹ in assay [3], 280000 M⁻¹ s⁻¹ in assay [4] and 350000 M⁻¹ s⁻¹ in assay [5]. The stoichiometry N in assay [1] stood at 1.33.

As to “extracellular domain of the human FcαRI with oligomannosidic N-glycans (from UniProt P24071 22-227) (receptor)”, the stoichiometry N (FcαRI per IgA) in assay [6] and in assay [7] was 1.3 throughout.

Regarding “extracellular domain of human FcαRI with single GlcNAc residues at each N-glycosylation site (from UniProt P24071 22-227) (receptor)”, the Kd in [2] is 25.2 nM; in assay [3], 25.8 nM; in assay [4] it was 26.2 nM; in [5], 25.2 nM. In addition, the koff in [2] amounted to 0.03 s⁻¹; in assay [3], 0.06 s⁻¹; in [4], 0.03 s⁻¹; in [5] it was 0.05 s⁻¹. Also, the kon in assay [2] is 1.3e+06 M⁻¹ s⁻¹; in assay [3], 2.3e+06 M⁻¹ s⁻¹; in assay [4], 1.2e+06 M⁻¹ s⁻¹; in assay [5], 1.9e+06 M⁻¹ s⁻¹.

For “extracellular domain of the human FcαRI (CD89) with complex sialylated N-glycans (from UniProt P24071 22-227) (receptor)”, the stoichiometry N (FcαRI per IgA) in assay [8] stood at 1; in assay [6] it was 1.3; in [7] it was 1.3. In assay [9], the stoichiometry N (FcαRI per IgA1-Fc) stood at 1.
